In US20250034266A1 (ZAI LAB SHANGHAI, published 2025):
Positions count from the first letter of the chain named. Numbers in names are those of the source.

B1: Hu348-1 (antibody, V domains shown)
VH: EVQLVESGGGLVQPGGSLKLSCATSGFSFSNYRMHWLRQASGKGLEWVGVITVKSDNYGANYAASVKGRFTISRDDSKSSVYLQMNSLKTEDTAVYYCSSLGRVAYWGQGTLVTVSS
VL: DIQMTQSPSSVSASVGDRVTITCKASQNVDTNVVWYQQKPGQSPKALIYSASSRYSGVPDRFSGSGSGTDFTLTISSLQPEDFATYYCQQHNSFPLTFGQGTKLEIK
notes: humanized IgG
B2: Hu348-2 (antibody, V domains shown)
VH: B1 VH
VL: B1 VL with Q42K, S43A
notes: humanized IgG
B3: Hu348-8 (antibody, V domains shown)
VH: B1 VH with S79N, S80T, V81A
VL: B1 VL
notes: humanized IgG
B4: Hu348-9 (antibody, V domains shown)
VH: B1 VH with S99T
VL: B1 VL
notes: humanized IgG
B5: Hu348-6 (antibody, V domains shown)
VH: B1 VH with L37V
VL: B1 VL
notes: humanized IgG
B6: Hu348-7 (antibody, V domains shown)
VH: B1 VH with V50R, A60T, N61A
VL: B1 VL
notes: humanized IgG
B7: Hu348-3 (antibody, V domains shown)
VH: B1 VH
VL: B1 VL with A46L
notes: humanized IgG
B8: Hu348-5 (antibody, V domains shown)
VH: B1 VH with T24A, R33A
VL: B1 VL
notes: humanized IgG
B9: Hu149-6 (antibody, V domains shown)
VH: EVQLVESGGGLVQPGGSLKLSCAASGFTFNTYAMHWVRQASGKGLEWVGRIRSKSNFYATYYAASVKGRFTISRDDSKNTAYLQMNSLKTEDTAVYYCVRGRDYGSSYAMDYWGQGTLVTVSS
VL: DIVMTQSPLSLPVTPGEPASISCRSSKSLLHSNANTYLYWYLQKPGQSPQLLIYRMSNLASGVPDRFSGSGSGTDFTLKISRVEAEDVGVYYCMQHLEYPLTFGGGTKVELK
notes: humanized IgG
B10: Hu149-8 (antibody, V domains shown)
VH: B9 VH with H35N, V99T
VL: B9 VL
notes: humanized IgG
B11: Hu149-7 (antibody, V domains shown)
VH: B9 VH with H35N, Y61A
VL: B9 VL
notes: humanized IgG
B12: Hu149-12G1m (antibody, human IgG1)
heavy: EVQLVESGGGLVQPGGSLKLSCAASGFTFNTYAMNWVRQASGKGLEWVGRIRSKSNFYATAYAASVKGRFTISRDDSKNTAYLQMNSLKTEDTAVYYCTRGKEYGSSYAMDYWGQGTLVTVSSASTKGPSVFPLAPSSKSTSGGTAALGCLVKDYFPEPVTVSWNSGALTSGVHTFPAVLQSSGLYSLSSVVTVPSSSLGTQTYICNVNHKPSNTKVDKKVEPKSCDKTHTCPPCPAPELVGGPSVFLLPPKPKDTLMISRTPEVTCVVVDVSHEDPEVKFNWYVDGVEVHNAKTKPPEEQYNSTLRVVSVLTVLHQDWLNGKEYKCKVSNKALPAPIEKTISKAKGQPREPQVYTLPPSRDELTKNQVSLTCLVKGFYPSDIAVEWESNGQPENNYKTTPLVLDSDGSFFLYSKLTVDKSRWQQGNVFSCSVMHEALHNHYTQKSLSLSPGK
VL: B9 VL with Y41F
notes: suffix G1m read as for Hu149-11G1m (L235V/F243L/R292P/Y300L/P396L)
B13: Hu149-11G1x (antibody)
heavy: B9 VH with H35N, Y61A, V99T, D103E
VL: B9 VL with Y41F
notes: Fc variant of Hu149-11; not shown: Fc variant 'G1x' is not defined in words
B14: Hu149-12G1x (antibody)
heavy: B9 VH with H35N, Y61A, V99T, R102K, D103E
VL: B9 VL with Y41F
notes: Fc variant of Hu149-12; not shown: Fc variant 'G1x' is not defined in words
B15: Hu149-11G1m (antibody, human IgG1)
heavy: B12 heavy with K102R
VL: B9 VL with Y41F

Molecular target: T1, human CCR8 (human, UniProt P51685 1-355)
T1 construct: whole, on cells; also called hCCR8
T1 sequence (P51685 whole entry): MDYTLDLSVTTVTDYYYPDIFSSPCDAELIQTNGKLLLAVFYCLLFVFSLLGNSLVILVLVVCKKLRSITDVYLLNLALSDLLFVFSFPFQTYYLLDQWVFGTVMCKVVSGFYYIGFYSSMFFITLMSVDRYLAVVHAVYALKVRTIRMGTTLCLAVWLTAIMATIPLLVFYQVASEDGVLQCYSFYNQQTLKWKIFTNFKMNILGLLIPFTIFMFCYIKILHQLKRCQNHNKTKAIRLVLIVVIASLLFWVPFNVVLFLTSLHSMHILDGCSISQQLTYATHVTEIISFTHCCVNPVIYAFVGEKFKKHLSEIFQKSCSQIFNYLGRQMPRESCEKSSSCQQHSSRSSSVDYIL
Assay: FACS, competition with AF647-human CCL1 on CHO-K1-human CCR8 cells

Row | Binder | IC50 | Max Inhibition (%)
1 | B1 | 230 pM | 94.1%
2 | B2 | 216 pM | 92.4%
3 | B3 | 358 pM | 88.4%
4 | B4 | 333 pM | 88.2%
5 | B5 | 1840 pM | 78.3%
6 | B6 | – | 25.6%
7 | B7 | 362 pM | 83.1%
8 | B8 | – | 1.39%

Molecular target: T1, human CCR8
Assay: FACS on HEK293-human CCR8 cells
Experimental: (§1) A total of 5×10⁴ cells for each well were seeded in 96-well plates and washed with FACS buffer (DPBD containing 1.5% FBS) for once. Antibodies were prepared with 3-fold serial dilution ranging from 100 nM to 0.0017 nM in FACS buffer. Cells were incubated with 50 μL of diluted antibodies at 4° C. for 1 hour. […] After primary antibody incubation, cells were washed for 3 times by FACS buffer. Then, cells were stained by Alexa Flu647 labeled anti-human IgG secondary antibody (Jackson ImmunoResearch, #109606170) or Alexa Flu647 labeled anti-mouse IgG secondary antibody (Jackson ImmunoResearch, #115605072) at 1:600 dilution in FACS buffer for 0.5 hour at 4° C. After washed for 3 times, Flow cytometry was performed to measure the binding.

Row | Binder | Max MFI | EC50
9 | B9 | 138 MFI | –
10 | B10 | 3830 MFI | 240 pM
11 | B11 | 3110 MFI | 6420 pM

Molecular target: T2, cynomolgus CCR8 (cynomolgus, UniProt G7NYJ2 1-355)
T2 construct: whole, on cells
T2 sequence (G7NYJ2 entry or part of it): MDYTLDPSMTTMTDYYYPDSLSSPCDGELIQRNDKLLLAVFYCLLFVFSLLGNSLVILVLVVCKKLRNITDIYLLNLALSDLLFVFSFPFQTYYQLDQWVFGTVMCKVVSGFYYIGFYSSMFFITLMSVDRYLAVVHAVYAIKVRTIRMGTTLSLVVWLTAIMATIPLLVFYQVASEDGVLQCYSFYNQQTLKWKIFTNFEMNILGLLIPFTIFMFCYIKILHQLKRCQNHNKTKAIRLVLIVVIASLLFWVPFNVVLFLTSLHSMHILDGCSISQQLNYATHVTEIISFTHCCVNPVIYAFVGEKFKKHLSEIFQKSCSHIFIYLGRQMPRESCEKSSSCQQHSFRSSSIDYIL
Assay: FACS on HEK293-cynomolgus CCR8 cells
Experimental: as §1

Row | Binder | Max MFI
12 | B9 | 443 MFI
13 | B10 | 2420 MFI
14 | B11 | 488 MFI

Molecular target: T1, human CCR8
Assay: FACS on HuT78 cells (endogenous human CCR8)

Row | Binder | EC50 | Max MFI
15 | B12 | 209 pM | 55600 MFI
16 | B13 | 427 pM | 52700 MFI
17 | B14 | 313 pM | 52900 MFI
18 | B15 | 384 pM | 45700 MFI

Molecular target: T1, human CCR8
Assay: FACS, competition with CCL1 on CHO-K1-human CCR8 cells

Row | Binder | IC50 | Max Inhibition (%)
19 | B12 | 146 pM | 99.6%
20 | B13 | 247 pM | 99.3%
21 | B14 | 170 pM | 100%
22 | B15 | 231 pM | 99.4%

Molecular target: T2, cynomolgus CCR8
Assay: FACS on ExpiCHO-S-cynomolgus CCR8 cells

Row | Binder | Max MFI | EC50
23 | B1 | 336 MFI | –
24 | B2 | 296 MFI | –
25 | B3 | 267 MFI | –
26 | B4 | 148 MFI | –
27 | B5 | 82 MFI | 31100 pM
28 | B6 | 174 MFI | –
29 | B7 | 350 MFI | –
30 | B8 | 6 MFI | –

Molecular target: T1, human CCR8
Assay: FACS on HEK293-human CCR8 cells
Remark: another data set of the same source

Row | Binder | EC50 | Max MFI
31 | B1 | 122 pM | 5110 MFI
32 | B2 | 119 pM | 4740 MFI
33 | B3 | 144 pM | 4730 MFI
34 | B4 | 182 pM | 4500 MFI
35 | B5 | 978 pM | 1980 MFI
36 | B6 | – | 756 MFI
37 | B7 | 108 pM | 4090 MFI
38 | B8 | – | 163 MFI

Molecular target: T1, human CCR8
Assay: FACS on CHO-K1-human CCR8 cells

Row | Binder | EC50 | Max MFI
39 | B12 | 66.8 pM | 183000 MFI
40 | B13 | 115 pM | 200000 MFI
41 | B14 | 92.7 pM | 195000 MFI
42 | B15 | 112 pM | 193000 MFI

Molecular target: T2, cynomolgus CCR8
Assay: FACS on HEK293-cynomolgus CCR8 cells
Remark: another data set of the same source

Row | Binder | EC50 | Max MFI
43 | B12 | 183 pM | 3.24e+06 MFI
44 | B13 | 240 pM | 4.52e+06 MFI
45 | B14 | 150 pM | 3.65e+06 MFI
46 | B15 | 217 pM | 4.34e+06 MFI

Molecular target: T1, human CCR8
Assay: FACS, competition with AF647-human CCL1 on CHO-K1-human CCR8 cells
Remark: another data set of the same source

Row | Binder | IC50 | Max Inhibition (%)
47 | B9 | 2370 pM | 1%
48 | B10 | 1240 pM | 86.5%
49 | B11 | 37800 pM | 59%
